According to patent publication US20180214548A1 (SHANGHAI YUNYI HEALTHCARE AND TECHNOLOGY, published 2018):

Assays:
[1] = biological target: T1, human PD-1^ECD-hFc protein (Immunogen A) (human, UniProt Q15116 25-167); assay: ELISA, coated human PD-1ECD-hFc; antibody 10 nM
T1 construct: Biotinylated for the Octet assay; also called PD-1-hFc; hPD-1^ECD-hFc; not shown: human IgG Fc fragment (hFc)
Protocol: (§1) 100 uL of the diluted recombinant proteins were added to each well of 96-well plate. The plates were sealed with plastic film and incubated at 4° C. overnight. The plates were washed twice with wash buffer (PBS+0.01% (v/v) Tween20), and incubated with blocking buffer (PBS+0.01% (v/v) Tween20+1% (w/w) BSA) at room temperature for 2 hours. The blocking buffer was aspirated away, and 100 uL of purified anti-PD-1 antibodies were added to each well and incubated for 2 hours at 37° C. The plates were washed three times with wash buffer (PBS+0.01% (v/v) Tween20). HRP-conjugated secondary antibody (Sigma) was added to each well and incubated for 2 hours at 37° C. After the plates were washed three times with wash buffer, 100 uL TMB substrate was added to each well and incubated for 30 minutes at room temperature. 100 uL stop solution (0.1N HCl) was added to each well to stop the reaction. The absorbance at 450 nm was measured with an ELISA plate reader (384plus SpectraMax, Molecular Devices).

[2] = biological target: T1, human PD-1^ECD-hFc protein (Immunogen A); assay: ELISA, coated human PD-1ECD-hFc; antibody 1 nM
Protocol: as §1

[3] = biological target: T2, cyno PD-1^ECD-hFc protein (cyno monkey, UniProt B0LAJ3 25-167); assay: ELISA, coated cyno PD-1ECD-hFc; antibody 10 nM
T2 construct: Prepared by the method for Immunogen A; also called Cyno Monkey PD-1^ECD-hFc; cyno monkey PD-1-hFc; not shown: human IgG Fc fragment (hFc) and its junction to the ECD
Protocol: as §1

[4] = biological target: T1, human PD-1^ECD-hFc protein (Immunogen A); assay: ELISA, coated protein 1 ug/mL; antibody concentration not stated
Protocol: as §1

CD28 = CD28 (human, UniProt P10747 19-152); assay: as above
Protocol: as §1

[5] = biological target: T1, human PD-1^ECD-hFc protein (Immunogen A); assay: ELISA, coated human PD-1ECD-hFc; antibody 0.1 nM
Protocol: as §1

[6] = biological target: T1, human PD-1^ECD-hFc protein (Immunogen A); assay: protein-based receptor-ligand blocking ELISA: coated PD-1ECD-hFc, blocked ligand biotinylated PD-L1ECD, streptavidin-HRP
Protocol: Purified PD-1^ECD-hFc (Example 2) was diluted with PBS to a final concentration of 1.0 ug/mL, and 100 uL diluted PD-1^ECD-hFc were added to each well of a 96-well plate that was then sealed with plastic film and incubated at 4° C. overnight. The plate was washed twice with wash buffer (PBS+0.01% (v/v) Tween 20) and incubated with blocking buffer (PBS+[…]) at room temperature for 2 hours. The blocking buffer was aspirated, and 50 uL purified anti-PD-1 antibodies from Example 2 were added to each well of 96-well plate. […] The plate was washed three times with wash buffer (PBS+0.01% (v/v) Tween 20). 100 uL HRP-conjugated streptavidin (Sigma) were then added to each well and incubated at 37° C. for 2 hours. The plate was then washed three times with wash buffer, and 100 uL TMB substrate were added to each well. After 30 minutes of incubation at room temperature, the reaction was stopped by adding 100 uL stop solution (0.1N HCl). The absorbance at OD450 nm was measured with an ELISA plate reader (384plus SpectraMax, Molecular Devices).

[7] = biological target: T1, human PD-1^ECD-hFc protein (Immunogen A); assay: ELISA, coated human PD-1ECD-hFc; antibody 0.01 nM
Protocol: as §1

[8] = biological target: T2, cyno PD-1^ECD-hFc protein; assay: ELISA, coated cyno PD-1ECD-hFc; antibody 100 nM
Protocol: as §1

[9] = biological target: T3, full length human PD-1 on cells (human, UniProt Q15116 25-288); assay: flow cytometry, CHO-K1-hPD-1 cells; antibody 0.1 nM
T3 construct: Also used here for PD-1 on human T cells/PBMC; also called CHO-K1-hPD-1; hPD-1
From the text: (§2) CHO-K1 cells were stably transfected with pIRES plasmid containing the nucleic acid sequence encoding full length human PD-1 (see Example 2, step 2) to generate CHO-K1 cells stably expressing human PD-1 (herein referred to as CHO-K1-hPD-1 cells). Other CHO-K1 were stably transfected with pIRES plasmid containing the nucleic acid sequence encoding full length cyno PD-1 to generate CHO-K1 cells stably expressing cyno PD-1 (herein referred to as CHO-K1-cPD-1 cells). CHO-K1-hPD-1 and CHO-K1-cPD-1 cells were cultured and expanded in T-75 culture flasks to 90% confluence. The culture media was aspirated, and the cells were washed twice with HBSS (Hanks Balanced Salt Solution, Invitrogen). The cells were treated with enzyme-free cell dissociation solution (Versene solution, Invitrogen) and collected. The cells were then washed twice with HBSS, cell counts were determined, and cells were resuspended with HBSS at 2×10⁶ cells/mL. Goat serum was added to the cell suspension to a final concentration of 1%, and the cells were blocked for 30 minutes on ice and then washed twice with HBSS. The cells were collected after centrifugation and resuspended in FACS buffer (HBSS+1% BSA, v/v) at 2×10⁶ cells/mL. 100 uL of the cell suspension were then added to each well of 96-well plate. 100 uL of purified anti-PD-1 antibodies from Example 2 were added to each well of the 96-well plate and incubated for 2 hours on ice. […] The samples were washed three times with FACS buffer, and 100 uL fixation buffer (4% paraformaldehyde v/v) were added to each well and incubated for 10 minutes. The cells were then washed twice with FACS buffer and resuspended in 100 uL FACS buffer. The mean fluorescence intensity (MFI) was determined using FACS Calibur (BD), and the results are shown in FIGS. 7-8 and in Tables 10-11.

[10] = biological target: T3, full length human PD-1 on cells; assay: flow cytometry, CHO-K1-hPD-1 cells; antibody 10 nM
From the text: as §2

T1 sequence (Q15116 25-167): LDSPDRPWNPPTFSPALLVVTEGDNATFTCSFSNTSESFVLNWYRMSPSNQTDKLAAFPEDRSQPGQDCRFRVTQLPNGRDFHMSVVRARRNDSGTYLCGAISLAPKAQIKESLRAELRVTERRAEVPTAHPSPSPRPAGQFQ
T2 sequence (B0LAJ3 entry or part of it limits assumed): as the sequence (Q15116 25-167) above, with D2E, P10A, V19L, T35A, Q75R counted along it
CD28, sequence (P10747 19-152 limits assumed): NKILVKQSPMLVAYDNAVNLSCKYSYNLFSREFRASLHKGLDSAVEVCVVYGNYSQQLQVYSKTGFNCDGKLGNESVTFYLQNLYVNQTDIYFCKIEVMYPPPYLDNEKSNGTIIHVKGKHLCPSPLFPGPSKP
T3 sequence (Q15116 25-288 limits assumed): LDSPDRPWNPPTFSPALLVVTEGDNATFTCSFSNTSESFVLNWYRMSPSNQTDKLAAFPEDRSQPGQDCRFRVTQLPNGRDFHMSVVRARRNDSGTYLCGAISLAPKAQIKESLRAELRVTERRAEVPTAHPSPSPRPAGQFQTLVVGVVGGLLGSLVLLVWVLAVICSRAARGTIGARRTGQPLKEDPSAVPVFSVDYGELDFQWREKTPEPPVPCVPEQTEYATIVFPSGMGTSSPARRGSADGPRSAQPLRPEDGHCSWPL

Binder	OD450 nm [1]	OD450 nm [2]	OD450 nm [3]	OD450 nm [4]	OD450 nm (CD28)	OD450 nm [5]	IC50 (read off the curve) [6]	OD450 nm [7]	OD450 nm [8]	Mean fluorescence intensity [9]	Mean fluorescence intensity [10]
chimeric anti-PD-1 antibody 32B5C7 (antibody, V domains shown, Purified from hybridoma of Harbour H2L2 mice: human variable regions, rat constant regions) VH: EVQLLESGGGLVQPGGSLRLSCAASGFTFSSYAMSWVRQAPGKGLEWVSTISGSGGTTYYADSVKGRFTISRDNSKNTLYLQMNSLRAEDTAVYYCTLTGDPDYWGQGTLVTVSS VL: EIVLTQSPATLSLSPGERATLSCRASQSVSSYLAWYQQKPGQAPRLLIYDASKRATGIPARFSGSGSGTDFTLTISSLEPEDFAVYYCQQRNNWPLTFGGGTKVEIK	3.14	3.02	1.51	2.69	0.062	2.11	~1 nM	0.55	1.66	13.2	156
chimeric anti-PD-1 antibody 76G5B3 (antibody, V domains shown, Purified from hybridoma of Harbour H2L2 mice: human variable regions, rat constant regions) VH: QVQLVESGGGVVQPGRSLRLSCAASGFTFSDYGFHWVRQAPGKGLEWVAVIWYDGSNEYYTDSVKGRFTISRDNSKNTLYLQMNSLRAEDTAMYFCVVNPFDYWGQGTLVTVSS VL: DIQMTQSPSSLSAFVGDRVTITCRASQGINHYLAWYQQKPGKAPNLLILAASTLLSGVPSRFGGRGSGTDFTLIISSLQPEDVATYYCQKYDSAPYTFGQGTKLEIK	3.12	3.07	1.62	2.76	0.061	2.43	~0.9 nM	0.65	1.89	36.2	435
chimeric anti-PD-1 antibody 21G8F11 (antibody, V domains shown, Purified from hybridoma of Harbour H2L2 mice: human variable regions, rat constant regions) VH: EVQLLESGGGLAQPGGSLRLSCAASGFSFNTYLMHWVRQAPGKGLEWVSAISGGGGNTYYADSVKGRFTISRDNSKNTLYLQMNSLRAEDTAVYYCAKENRIPVAPFDYWGQGTLVTVSS VL: DIQMTQSPSTLSASVGDRVTITCRASQSISTWLAWYQQKPGKAPKLLIYKASSLESGVPSRFSGSGSGTEFTLTISSLQPDDLATYYCQQYNSFSWTFGQGTKVEIK	2.87	2.83	2.63	2.25	0.144	1.77	~0.4 µg/mL	0.669	2.61	22.8	696
